The assay addresses T1, proprotein convertase subtilisin/kexin type 9 (PCSK9) (human, UniProt Q8NBP7 31-152).
T1 construct: domain: prodomain; Recombinant; tag not written as a part; also called rec.PCSK9; His-PCSK9
In words: phage spot ELISA. Background: In an ELISA, binding on a coated surface is turned into a signal by an enzyme label.

Ends that are not written are not given here.

T1 sequence (Q8NBP7 31-152 limits assumed, chain 1 of 2): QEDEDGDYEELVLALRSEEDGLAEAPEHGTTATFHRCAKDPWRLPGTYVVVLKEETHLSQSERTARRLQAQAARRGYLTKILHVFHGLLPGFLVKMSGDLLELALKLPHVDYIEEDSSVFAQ
T1 sequence (Q8NBP7 153-692 limits assumed, chain 2 of 2): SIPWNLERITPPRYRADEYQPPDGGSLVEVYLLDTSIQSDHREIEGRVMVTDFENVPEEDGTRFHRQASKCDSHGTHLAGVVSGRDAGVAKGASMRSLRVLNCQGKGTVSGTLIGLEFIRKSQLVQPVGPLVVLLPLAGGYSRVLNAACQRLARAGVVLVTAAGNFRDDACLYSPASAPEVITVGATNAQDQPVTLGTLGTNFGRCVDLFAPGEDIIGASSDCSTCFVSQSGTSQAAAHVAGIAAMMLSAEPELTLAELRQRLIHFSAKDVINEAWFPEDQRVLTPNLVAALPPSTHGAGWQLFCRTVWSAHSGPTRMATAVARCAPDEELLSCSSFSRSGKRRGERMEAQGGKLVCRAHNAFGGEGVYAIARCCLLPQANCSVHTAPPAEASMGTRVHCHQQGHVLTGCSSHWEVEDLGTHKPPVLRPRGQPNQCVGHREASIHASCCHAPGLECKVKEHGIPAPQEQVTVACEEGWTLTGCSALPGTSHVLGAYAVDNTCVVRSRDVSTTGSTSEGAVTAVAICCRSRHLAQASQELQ

As for TAFTSWEEYLDWVGSGRGGYELNIPR (phage clone) [SEQ ID NO 326], the binding result is “binds”.
Turning to TAFTSWEEYLDWVGSGKLWNLGRV (phage clone) [SEQ ID NO 306], the binding result is “binds”.
Turning to TAFTSWEEYLDWVGSGMPWNLARIER (phage clone) [SEQ ID NO 318], the binding result was “binds”.
With TAFTSWEEYLDWVGSGKCDSHYIRGVVACH (phage clone) [SEQ ID NO 356] the entry was “binds”; with TAFTSWEEYLDWVGSGKMTHMKAD (phage clone) [SEQ ID NO 357], “binds”.
Regarding TAFTSWEEYLDWVGSGNCWSSLRGICENLG (phage clone) [SEQ ID NO 307], the binding result is “binds”.
As to TAFTSWEEYLDWVGSGPRTYLRGLVD (phage clone) [SEQ ID NO 340], the binding result was “binds”.
TAFTSWEEYLDWVGSGVCSDHYIGGKEVRC (phage clone) [SEQ ID NO 348]: the binding result is listed as “binds”.
Take TAFTSWEEYLDWVGSGVVLWNHSRIL (phage clone) [SEQ ID NO 313]: the binding result is on record as “binds”.
Consider TAFTSWEEYLDWVGSGNELWNINRLRSS (phage clone) [SEQ ID NO 317], for which the binding result was “binds”.
In the case of TAFTSWEEYLDWVGSGGHPLWNLSRI (phage clone) [SEQ ID NO 316], the binding result was “binds”.
Regarding TAFTSWEEYLDWVGSGACLNHFVSGNMIRC (phage clone) [SEQ ID NO 327], the binding result is on record as “binds”.
The same measure for TAFTSWEEYLDWVGSGCVKVGLSWIGDCNS (phage clone) [SEQ ID NO 334]: “binds”; for TAFTSWEEYLDWVGSGKLWNLTRISS (phage clone) [SEQ ID NO 312]: “binds”; for TAFTSWEEYLDWVGSGNMCYLRGKMDCNIV (phage clone) [SEQ ID NO 347]: “binds”.
On to TAFTSWEEYLDWVGSGSYRGAWSVFGGSTD (phage clone) [SEQ ID NO 336], for which the binding result is recorded as “binds”.
Take TAFTSWEEYLDWVGSGGEYLWNLKRLES (phage clone) [SEQ ID NO 320]: the binding result is recorded as “binds”.
Regarding TAFTSWEEYLDWVGSGCMEAWQCSLA (phage clone) [SEQ ID NO 337], the binding result is “binds”.
With TAFTSWEEYLDWVGSGKNNYAYLINMPRAPGI (phage clone) [SEQ ID NO 325], the binding result was “binds”.
As to TAFTSWEEYLDWVGSGCLDRSGGCYTREGYLS (phage clone) [SEQ ID NO 353], the binding result is “binds”.
As to TAFTSWEEYLDWVGSGCCSYGYEKCCNG [SEQ ID NO 349], the binding result is “binds”.
In the case of TAFTSWEEYLDWVGSGVPWNLARL (phage clone) [SEQ ID NO 314], the binding result is “binds”.
As to TAFTSWEEYLDWVGSGVPWNLAKI (phage clone) [SEQ ID NO 315], the binding result is reported as “binds”.
Consider TAFTSWEEYLDWVGSGCWTYLRGGCSVT (not fully specified (bridges); cysteine pairing not given here, phage clone) [SEQ ID NO 339], for which the binding result is on record as “binds”.
In the case of TAFTSWEEYLDWVGSGNCARLYSHQRDYSQVC (phage clone) [SEQ ID NO 352], the binding result is given as “binds”.
With TAFTSWEEYLDWVGSGMVYVDRGVRVFT (phage clone) [SEQ ID NO 322], the binding result is given as “binds”.
The same measure for TAFTSWEEYLDWVGSGQCYPWCRL (phage clone) [SEQ ID NO 338]: “binds”; for TAFTSWEEYLDWVGSGSPCRVGYTPC (not fully specified (bridges); cysteine pairing not given here, phage clone) [SEQ ID NO 351]: “binds”.
In the case of TAFTSWEEYLDWVGSGSCSWNVERIRGCSV (phage clone) [SEQ ID NO 311], the binding result is on record as “binds”.
As to TAFTSWEEYLDWVGSGGCGYRYMCDMINGL (phage clone) [SEQ ID NO 358], the binding result is “binds”.
As for TAFTSWEEYLDWVGSGNVRCYRDVPSCS (not fully specified (bridges); cysteine pairing not given here, phage clone) [SEQ ID NO 329], the binding result is “binds”.
Turning to TAFTSWEEYLDWVGSGDCLRYRVGSSCS (not fully specified (bridges); cysteine pairing not given here, phage clone) [SEQ ID NO 360], the binding result was “binds”.
With TAFTSWEEYLDWVGSGSETGLGTYYG (phage clone) [SEQ ID NO 350], the binding result is reported as “binds”.
On to TAFTSWEEYLDWVGSGGCVKYRGSVSCQESKT (phage clone) [SEQ ID NO 323], for which the binding result is “binds”.
With TAFTSWEEYLDWVGSGQTTYLRVSSS (phage clone) [SEQ ID NO 341] the entry was “binds”; with TAFTSWEEYLDWVGSGGDCYPHCRLV (not fully specified (bridges); cysteine pairing not given here, phage clone) [SEQ ID NO 359], “binds”.
TAFTSWEEYLDWVGSGTRYADRGVMVYSLS (phage clone) [SEQ ID NO 321]: the binding result is on record as “binds”.
Take TAFTSWEEYLDWVGSGCYPLCRVG (phage clone) [SEQ ID NO 355]: the binding result is listed as “binds”.
Turning to TAFTSWEEYLDWVGSGCYPLCRVL (phage clone) [SEQ ID NO 364], the binding result was “binds”.
With TAFTSWEEYLDWVGSGGPWNLNRV (phage clone) [SEQ ID NO 309] the entry was “binds”; with TAFTSWEEYLDWVGSGSSTWHFVGGVRV (phage clone) [SEQ ID NO 354], “binds”.
For the molecule TAFTSWEEYLDWVGSGNPTYWLTRIS (phage clone) [SEQ ID NO 331], the binding result is “binds”.
In the case of TAFTSWEEYLDWVGSGCPFYDWRCSDFS (not fully specified (bridges); cysteine pairing not given here, phage clone) [SEQ ID NO 328], the binding result was “binds”.
For the molecule TAFTSWEEYLDWVGSGRGEVYDKGGVIVHL (phage clone) [SEQ ID NO 343], the binding result is on record as “binds”.
In the case of TAFTSWEEYLDWVGSGPHSYWLDRVQ (phage clone) [SEQ ID NO 332], the binding result is “binds”.
Take TAFTSWEEYLDWVGSGALWNMRRVESVAFR (phage clone) [SEQ ID NO 319]: the binding result is on record as “binds”.
For TAFTSWEEYLDWVGSGGREMRSVIQM (phage clone) [SEQ ID NO 344], the binding result is on record as “binds”.
As to TAFTSWEEYLDWVGSGVLWNHSRI (phage clone) [SEQ ID NO 308], the binding result is recorded as “binds”.
For TAFTSWEEYLDWVGSGEDVVCYGRVDYMPLCV (phage clone) [SEQ ID NO 330], the binding result was “binds”.
For TAFTSWEEYLDWVGSGEHQFYSYRGVDVYR (phage clone) [SEQ ID NO 324], the binding result was “binds”.
Regarding TAFTSWEEYLDWVGSGPLLWNLQKVH (phage clone) [SEQ ID NO 310], the binding result is given as “binds”.
Regarding TAFTSWEEYLDWVGSGGDCGYHYMCSMT (not fully specified (bridges); cysteine pairing not given here, phage clone) [SEQ ID NO 345], the binding result was “binds”.
Regarding TAFTSWEEYLDWVGSGQELPNHRRLS (phage clone) [SEQ ID NO 346], the binding result is on record as “binds”.

The values are drawn from US20190177366A1 (published 2019).
